Measured values: publication PMC9482650, “Quantitative fragmentomics allow affinity mapping of interactomes” (Nature Communications, 2022)

T1: GRIP1_3, Q9Y3R0
T1 sequence (Q9Y3R0 247-346, limits assumed, looked up): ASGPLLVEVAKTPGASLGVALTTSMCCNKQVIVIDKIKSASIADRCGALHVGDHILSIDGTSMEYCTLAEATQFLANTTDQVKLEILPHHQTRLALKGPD

T2: GRIP1_7, Q9Y3R0
T2 sequence (Q9Y3R0 999-1096, limits assumed, looked up): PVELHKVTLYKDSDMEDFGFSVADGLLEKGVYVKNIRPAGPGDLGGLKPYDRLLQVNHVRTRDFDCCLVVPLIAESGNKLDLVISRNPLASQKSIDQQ

T3: LRRC7, Q96NW7
T3 sequence (Q96NW7 1440-1537, limits assumed, looked up): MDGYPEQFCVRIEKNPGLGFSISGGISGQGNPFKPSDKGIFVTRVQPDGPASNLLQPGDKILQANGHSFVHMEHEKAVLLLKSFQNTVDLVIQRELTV

T4: MPDZ_5, O75970
T4 sequence (O75970 695-796, limits assumed, looked up): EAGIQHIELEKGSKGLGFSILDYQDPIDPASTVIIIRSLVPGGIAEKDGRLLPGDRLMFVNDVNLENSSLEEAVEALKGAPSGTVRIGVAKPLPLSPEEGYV

T5: MPP7, Q5T2T1
T5 sequence (Q5T2T1 134-230, limits assumed, looked up): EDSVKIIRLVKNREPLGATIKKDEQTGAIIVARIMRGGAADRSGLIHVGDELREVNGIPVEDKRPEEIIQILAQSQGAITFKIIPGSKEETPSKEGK

T6: NHERF3_3, Q5T2W1
T6 sequence (Q5T2W1 238-333, limits assumed, looked up): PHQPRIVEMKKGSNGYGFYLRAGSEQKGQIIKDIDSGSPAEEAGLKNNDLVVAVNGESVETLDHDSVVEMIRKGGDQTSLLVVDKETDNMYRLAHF

T7: NHERF3_4, Q5T2W1
T7 sequence (Q5T2W1 373-468, limits assumed, looked up): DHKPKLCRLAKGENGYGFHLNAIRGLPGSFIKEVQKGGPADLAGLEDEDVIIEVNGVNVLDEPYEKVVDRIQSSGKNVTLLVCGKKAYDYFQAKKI

T8: PCLO, Q9Y6V0
T8 sequence (Q9Y6V0 4491-4600, limits assumed, looked up): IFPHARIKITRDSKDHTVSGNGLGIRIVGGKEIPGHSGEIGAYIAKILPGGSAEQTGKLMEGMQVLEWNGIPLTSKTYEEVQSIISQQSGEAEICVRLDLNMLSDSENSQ

T9: RHPN1, Q8TCX5
T9 sequence (Q8TCX5 508-602, limits assumed, looked up): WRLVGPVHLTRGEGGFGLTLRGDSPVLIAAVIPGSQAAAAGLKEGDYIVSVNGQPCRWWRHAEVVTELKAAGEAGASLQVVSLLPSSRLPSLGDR

T10: SNTA1, Q13424
T10 sequence (Q13424 82-180, limits assumed, looked up): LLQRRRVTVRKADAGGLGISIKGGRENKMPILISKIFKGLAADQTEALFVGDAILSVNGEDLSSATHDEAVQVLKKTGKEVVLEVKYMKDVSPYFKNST

T11: SYNJ2BP, P57105
T11 sequence (P57105 8-110, limits assumed, looked up): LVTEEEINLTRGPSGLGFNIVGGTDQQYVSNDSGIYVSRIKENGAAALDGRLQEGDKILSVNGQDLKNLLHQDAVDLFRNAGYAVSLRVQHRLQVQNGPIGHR

T12: TX1BP3, O14907
T12 sequence (O14907 10-122, limits assumed, looked up): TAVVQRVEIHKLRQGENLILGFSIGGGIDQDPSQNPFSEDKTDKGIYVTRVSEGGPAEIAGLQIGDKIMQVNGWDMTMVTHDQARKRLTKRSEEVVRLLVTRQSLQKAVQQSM

B1: KCNJ1, P48048 (peptide)
chain: EVNETDDTKM

What follows are binders tested against DLG1_2, Q12959 (assay: holdup assay). Settings: plain residues with an end cap or a label only (N-terminal biotin on a linker: ado-ado).
Chain of DLG1_2, Q12959 (Q12959 314-412): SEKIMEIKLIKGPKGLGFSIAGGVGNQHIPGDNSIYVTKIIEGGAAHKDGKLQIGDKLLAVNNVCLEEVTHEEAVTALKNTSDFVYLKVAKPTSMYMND
Parameters: key: below the threshold = too weak to quantify, mostly under pKd 3.1 to 4
In the case of B1, the pKd is reported as “below the threshold”.

These binders were tested against DLG2_2, Q15700 (assay: holdup assay). Settings: plain residues with an end cap or a label only (N-terminal biotin on a linker: ado-ado).
Parameters: key: below the threshold = too weak to quantify, mostly under pKd 3.1 to 4
B1 was tested, and the pKd was “below the threshold”.

What follows are binders tested against DLG2_3, Q15700 (assay: holdup assay). Settings: plain residues with an end cap or a label only (N-terminal biotin on a linker: ado-ado).
Parameters: key: below the threshold = too weak to quantify, mostly under pKd 3.1 to 4
B1 was tested, and the pKd was “below the threshold”.

Each binder was assayed against DLG5_1, Q8TDM6 (assay: holdup assay). Settings: plain residues with an end cap or a label only (N-terminal biotin on a linker: ado-ado).
Chain of DLG5_1, Q8TDM6 (Q8TDM6 617-713): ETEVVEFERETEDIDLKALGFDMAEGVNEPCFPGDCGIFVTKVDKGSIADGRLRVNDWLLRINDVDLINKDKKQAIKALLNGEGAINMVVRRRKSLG
Parameters: key: below the threshold = too weak to quantify, mostly under pKd 3.1 to 4
In the case of B1, the pKd is reported as “below the threshold”.

These binders were tested against GRID2IP_2, A4D2P6 (assay: holdup assay). Settings: plain residues with an end cap or a label only (N-terminal biotin on a linker: ado-ado).
Chain of GRID2IP_2, A4D2P6 (A4D2P6 272-370): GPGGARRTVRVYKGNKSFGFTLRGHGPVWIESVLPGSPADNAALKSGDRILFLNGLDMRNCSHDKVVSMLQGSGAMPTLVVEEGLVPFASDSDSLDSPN
Parameters: key: below the threshold = too weak to quantify, mostly under pKd 3.1 to 4
B1 was tested, and the pKd was “below the threshold”.

These binders were tested against T1, GRIP1_3, Q9Y3R0 (assay: holdup assay). Settings: plain residues with an end cap or a label only (N-terminal biotin on a linker: ado-ado).
Parameters: key: below the threshold = too weak to quantify, mostly under pKd 3.1 to 4
For B1, the pKd was “below the threshold”.

These binders were tested against T2, GRIP1_7, Q9Y3R0 (assay: holdup assay). Settings: plain residues with an end cap or a label only (N-terminal biotin on a linker: ado-ado).
Parameters: key: below the threshold = too weak to quantify, mostly under pKd 3.1 to 4
With B1 the pKd was “below the threshold”.

The binders below were run against GRIP2_7, Q9C0E4 (assay: holdup assay). Settings: plain residues with an end cap or a label only (N-terminal biotin on a linker: ado-ado).
Chain of GRIP2_7, Q9C0E4 (Q9C0E4 934-1023): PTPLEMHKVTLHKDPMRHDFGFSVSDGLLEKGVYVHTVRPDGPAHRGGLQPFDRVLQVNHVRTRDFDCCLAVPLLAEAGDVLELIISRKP
Parameters: key: below the threshold = too weak to quantify, mostly under pKd 3.1 to 4
For B1, the pKd was “below the threshold”.

The binders below were run against HTRA1, Q92743 (assay: holdup assay). Settings: plain residues with an end cap or a label only (N-terminal biotin on a linker: ado-ado).
Chain of HTRA1, Q92743 (Q92743 360-477): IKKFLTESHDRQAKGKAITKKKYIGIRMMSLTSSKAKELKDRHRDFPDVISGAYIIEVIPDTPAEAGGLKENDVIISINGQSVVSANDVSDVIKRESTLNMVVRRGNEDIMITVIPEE
Parameters: key: below the threshold = too weak to quantify, mostly under pKd 3.1 to 4
B1 was tested, and the pKd was “below the threshold”.

The binders below were run against Inadl_5, Q8NI35 (assay: holdup assay). Settings: plain residues with an end cap or a label only (N-terminal biotin on a linker: ado-ado).
Chain of Inadl_5, Q8NI35 (Q8NI35 673-780): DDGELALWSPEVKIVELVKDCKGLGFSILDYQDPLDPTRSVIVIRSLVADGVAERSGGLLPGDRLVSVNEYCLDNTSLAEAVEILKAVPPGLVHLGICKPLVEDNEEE
Parameters: key: below the threshold = too weak to quantify, mostly under pKd 3.1 to 4
For B1, the pKd was “below the threshold”.

Each binder was assayed against LIMK2, P53671 (assay: holdup assay). Settings: plain residues with an end cap or a label only (N-terminal biotin on a linker: ado-ado).
Chain of LIMK2, P53671 (P53671 143-248): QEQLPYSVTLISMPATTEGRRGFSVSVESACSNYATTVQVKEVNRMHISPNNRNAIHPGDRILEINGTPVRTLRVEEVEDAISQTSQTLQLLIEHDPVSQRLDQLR
Parameters: key: below the threshold = too weak to quantify, mostly under pKd 3.1 to 4
In the case of B1, the pKd is reported as “below the threshold”.

What follows are binders tested against T3, LRRC7, Q96NW7 (assay: holdup assay). Settings: plain residues with an end cap or a label only (N-terminal biotin on a linker: ado-ado).
Parameters: key: below the threshold = too weak to quantify, mostly under pKd 3.1 to 4
For B1, the pKd was “below the threshold”.

What follows are binders tested against MAGI2_3, Q86UL8 (assay: holdup assay). Settings: plain residues with an end cap or a label only (N-terminal biotin on a linker: ado-ado).
Chain of MAGI2_3, Q86UL8 (Q86UL8 600-682): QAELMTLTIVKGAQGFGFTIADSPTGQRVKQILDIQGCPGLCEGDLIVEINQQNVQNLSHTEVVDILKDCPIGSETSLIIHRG
Parameters: key: below the threshold = too weak to quantify, mostly under pKd 3.1 to 4
B1 was tested, and the pKd was 3.48.

Each binder was assayed against MAGI2_4, Q86UL8 (assay: holdup assay). Settings: plain residues with an end cap or a label only (N-terminal biotin on a linker: ado-ado).
Chain of MAGI2_4, Q86UL8 (Q86UL8 772-865): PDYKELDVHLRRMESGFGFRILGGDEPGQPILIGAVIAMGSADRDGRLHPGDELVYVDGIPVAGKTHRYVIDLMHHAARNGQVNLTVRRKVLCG
Parameters: key: below the threshold = too weak to quantify, mostly under pKd 3.1 to 4
B1 gave a pKd of 3.63.

Each binder was assayed against MAST1, Q9Y2H9 (assay: holdup assay). Settings: plain residues with an end cap or a label only (N-terminal biotin on a linker: ado-ado).
Chain of MAST1, Q9Y2H9 (Q9Y2H9 962-1065): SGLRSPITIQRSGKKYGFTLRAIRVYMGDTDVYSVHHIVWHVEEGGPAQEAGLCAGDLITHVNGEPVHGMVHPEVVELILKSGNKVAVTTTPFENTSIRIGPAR
Parameters: key: below the threshold = too weak to quantify, mostly under pKd 3.1 to 4
B1 showed a pKd of 4.46.

What follows are binders tested against T4, MPDZ_5, O75970 (assay: holdup assay). Settings: plain residues with an end cap or a label only (N-terminal biotin on a linker: ado-ado).
Parameters: key: below the threshold = too weak to quantify, mostly under pKd 3.1 to 4
For B1, the pKd was “below the threshold”.

Each binder was assayed against T5, MPP7, Q5T2T1 (assay: holdup assay). Settings: plain residues with an end cap or a label only (N-terminal biotin on a linker: ado-ado).
Parameters: key: below the threshold = too weak to quantify, mostly under pKd 3.1 to 4
For B1, the pKd was “below the threshold”.

The binders below were run against T6, NHERF3_3, Q5T2W1 (assay: holdup assay). Settings: plain residues with an end cap or a label only (N-terminal biotin on a linker: ado-ado).
Parameters: key: below the threshold = too weak to quantify, mostly under pKd 3.1 to 4
With B1 the pKd was “below the threshold”.

The binders below were run against T7, NHERF3_4, Q5T2W1 (assay: holdup assay). Settings: plain residues with an end cap or a label only (N-terminal biotin on a linker: ado-ado).
Parameters: key: below the threshold = too weak to quantify, mostly under pKd 3.1 to 4
B1 gave a pKd of 3.48.

These binders were tested against T8, PCLO, Q9Y6V0 (assay: holdup assay). Settings: plain residues with an end cap or a label only (N-terminal biotin on a linker: ado-ado).
Parameters: key: below the threshold = too weak to quantify, mostly under pKd 3.1 to 4
B1 was tested, and the pKd was “below the threshold”.

Each binder was assayed against PDZRN4_1, Q6ZMN7 (assay: holdup assay). Settings: plain residues with an end cap or a label only (N-terminal biotin on a linker: ado-ado).
Chain of PDZRN4_1, Q6ZMN7 (Q6ZMN7 213-318): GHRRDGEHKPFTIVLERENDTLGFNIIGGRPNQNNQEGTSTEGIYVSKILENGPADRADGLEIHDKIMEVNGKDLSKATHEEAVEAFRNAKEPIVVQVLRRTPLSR
Parameters: key: below the threshold = too weak to quantify, mostly under pKd 3.1 to 4
In the case of B1, the pKd is reported as “below the threshold”.

What follows are binders tested against T9, RHPN1, Q8TCX5 (assay: holdup assay). Settings: plain residues with an end cap or a label only (N-terminal biotin on a linker: ado-ado).
Parameters: key: below the threshold = too weak to quantify, mostly under pKd 3.1 to 4
With B1 the pKd was “below the threshold”.

The binders below were run against T10, SNTA1, Q13424 (assay: holdup assay). Settings: plain residues with an end cap or a label only (N-terminal biotin on a linker: ado-ado).
Parameters: key: below the threshold = too weak to quantify, mostly under pKd 3.1 to 4
In the case of B1, the pKd is reported as “below the threshold”.

These binders were tested against T11, SYNJ2BP, P57105 (assay: holdup assay). Settings: plain residues with an end cap or a label only (N-terminal biotin on a linker: ado-ado).
Parameters: key: below the threshold = too weak to quantify, mostly under pKd 3.1 to 4
Work on B1 yielded a pKd of 4.39.

These binders were tested against T12, TX1BP3, O14907 (assay: holdup assay). Settings: plain residues with an end cap or a label only (N-terminal biotin on a linker: ado-ado).
Parameters: key: below the threshold = too weak to quantify, mostly under pKd 3.1 to 4
Binder B1 has a pKd of 4.15.
